Test results from article PMC5490261, “The structural and functional characterization of human RecQ4 reveals insights into its helicase mechanism”.
Positions count from the first letter of the chain named.

Assays:
Conditions in all cases: protein: recombinant; tags: Trx-His6 removed by 3C protease; label: 5' Cy3
[1] = molecular target: T1, RecQ4 427-1208 K843A/R844E/R848A (Homo sapiens, UniProt O94761 427-1208, K843A;R844E;R848A); assay: fluorescence polarization; WT-like, low nM apparent Kd; 20 mM HEPES pH 8.0, 10 mM NaCl, 5% glycerol, 1 mM MgCl2, 0.5 mM TCEP, 0.5 nM Cy3-ssDNA; temperature not stated
T1 sequence: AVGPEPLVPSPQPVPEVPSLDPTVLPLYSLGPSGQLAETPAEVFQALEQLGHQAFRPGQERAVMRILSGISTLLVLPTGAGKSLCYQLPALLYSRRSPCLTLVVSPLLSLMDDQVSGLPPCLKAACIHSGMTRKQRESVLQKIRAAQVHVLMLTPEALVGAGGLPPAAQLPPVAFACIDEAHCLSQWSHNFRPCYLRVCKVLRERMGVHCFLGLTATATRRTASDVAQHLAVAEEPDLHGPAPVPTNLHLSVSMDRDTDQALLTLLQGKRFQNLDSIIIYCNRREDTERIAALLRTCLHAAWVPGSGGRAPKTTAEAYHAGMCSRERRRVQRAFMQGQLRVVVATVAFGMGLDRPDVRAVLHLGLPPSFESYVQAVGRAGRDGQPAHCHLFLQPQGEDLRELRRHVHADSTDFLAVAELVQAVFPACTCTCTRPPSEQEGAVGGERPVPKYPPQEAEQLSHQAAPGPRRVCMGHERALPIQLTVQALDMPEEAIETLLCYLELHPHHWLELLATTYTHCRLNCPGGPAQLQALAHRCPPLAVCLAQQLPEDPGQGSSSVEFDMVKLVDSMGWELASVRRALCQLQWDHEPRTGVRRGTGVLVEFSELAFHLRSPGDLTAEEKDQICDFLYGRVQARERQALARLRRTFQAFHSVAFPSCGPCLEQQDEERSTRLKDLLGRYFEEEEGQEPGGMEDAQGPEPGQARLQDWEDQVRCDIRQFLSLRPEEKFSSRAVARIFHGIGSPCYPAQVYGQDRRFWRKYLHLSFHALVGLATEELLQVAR

[2] = molecular target: T2, RecQ4 427-1208 R894A/R895A (Homo sapiens, UniProt O94761 427-1208, R894A;R895A); assay: as above
T2 sequence: T1 sequence with A417K, E418R, A422R, R468A, R469A

RecQ4 427-1208 F617L = molecular target: T3, RecQ4 427-1208 F617L (Homo sapiens, UniProt O94761 427-1208, F617L); assay: fluorescence polarization; WT-like affinity; figure values not assignable from text layer; 20 mM HEPES pH 8.0, 10 mM NaCl, 5% glycerol, 1 mM MgCl2, 0.5 mM TCEP, 0.5 nM Cy3-ssDNA; temperature not stated
T3 sequence: T1 sequence with F191L, A417K, E418R, A422R

Measured: binding result

CCATTCCACCCTCTATTTTTTTTTTTTTTT (ssDNA) [T3-Cy3]
binds: all assays above
